This passage reports Vmax results from ChEMBL document CHEMBL4706520, “Development of disulfide-derived fructose-1,6-bisphosphatase (FBPase) covalent inhibitors for the treatment of type 2 diabetes” (Eur J Med Chem, 2020).

Compound in the data set: c1csc(SSc2nccs2)n1
The experiment in a line: Covalent inhibition of FBPase WT (unknown origin) assessed as Vmax measured at 45 mins. Particulars: Homo sapiens.

B1: Fructose-1,6-bisphosphatase 1 (Homo sapiens), P09467 (protein)
chain: MADQAPFDTDVNTLTRFVMEEGRKARGTGELTQLLNSLCTAVKAISSAVRKAGIAHLYGIAGSTNVTGDQVKKLDVLSNDLVMNMLKSSFATCVLVSEEDKHAIIVEPEKRGKYVVCFDPLDGSSNIDCLVSVGTIFGIYRKKSTDEPSEKDALQPGRNLVAAGYALYGSATMLVLAMDCGVNCFMLDPAIGEFILVDKDVKIKKKGKIYSLNEGYARDFDPAVTEYIQRKKFPPDNSAPYGARYVGSMVADVHRTLVYGGIFLYPANKKSPNGKLRLLYECNPMAYVMEKAGGMATTGKEAVLDVIPTDIHQRAPVILGSPDDVLEFLKVYEKHSAQ
In the case of B1, the Vmax is 4 U/mg.
